Source: US20120238493A1 (INDIANA UNIVERSITY RESEARCH AND TECHNOLOGY, published 2012)
Read-outs that look alike come from different tables or passages of the source. *1 amine or outer side, *2 acyl side, *3 side chain or, on linkers, in order; H or OH if unused. Where no end group is shown, it is not given here. Side-chain parts run from the residue outwards. [ ]: non-standard residue; d: D form. The star is where a group is joined. γGlu = O=C(O)[C@H](CCC(=O)[*:2])N[*:1]; Palmitoyl = CCCCCCCCCCCCCCCC(=O)*; Aib = CC(C)(N)C(=O)O

T1: GIP receptor (UniProt P48546 22-466, limits assumed)
T1 sequence (looked up): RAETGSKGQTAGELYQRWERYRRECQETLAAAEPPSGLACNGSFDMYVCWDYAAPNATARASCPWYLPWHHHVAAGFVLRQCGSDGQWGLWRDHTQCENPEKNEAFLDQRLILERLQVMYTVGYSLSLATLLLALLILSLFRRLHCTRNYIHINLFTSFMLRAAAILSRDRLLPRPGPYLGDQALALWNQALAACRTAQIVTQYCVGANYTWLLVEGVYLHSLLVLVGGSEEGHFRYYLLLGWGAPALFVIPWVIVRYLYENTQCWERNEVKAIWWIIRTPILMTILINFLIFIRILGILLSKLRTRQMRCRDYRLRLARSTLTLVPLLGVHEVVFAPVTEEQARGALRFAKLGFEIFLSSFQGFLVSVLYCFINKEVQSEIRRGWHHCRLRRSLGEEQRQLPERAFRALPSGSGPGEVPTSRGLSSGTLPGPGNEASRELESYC

B1: Analog No. 61: Aib2, K10acyl, E16, Aib20, E21, L27, D28, G29 + CEX (SEQ ID NO: 37) (peptide)
peptide: H[Aib]QGTFTSDK([γGlu-Palmitoyl])SKYLDERRA[Aib]EFVQWLLDGGPSSGAPPPS-NH2
modifications: N-terminus assumed
SMILES: CCCCCCCCCCCCCCCC(=O)N[C@@H](CCC(=O)NCCCC[C@H](NC(=O)[C@H](CC(=O)O)NC(=O)[C@H](CO)NC(=O)[C@@H](NC(=O)[C@H](Cc1ccccc1)NC(=O)[C@@H](NC(=O)CNC(=O)[C@H](CCC(N)=O)NC(=O)C(C)(C)NC(=O)[C@@H](N)Cc1c[nH]cn1)[C@@H](C)O)[C@@H](C)O)C(=O)N[C@@H](CO)C(=O)N[C@@H](CCCCN)C(=O)N[C@@H](Cc1ccc(O)cc1)C(=O)N[C@@H](CC(C)C)C(=O)N[C@@H](CC(=O)O)C(=O)N[C@@H](CCC(=O)O)C(=O)N[C@@H](CCCNC(=N)N)C(=O)N[C@@H](CCCNC(=N)N)C(=O)N[C@@H](C)C(=O)NC(C)(C)C(=O)N[C@@H](CCC(=O)O)C(=O)N[C@@H](Cc1ccccc1)C(=O)N[C@H](C(=O)N[C@@H](CCC(N)=O)C(=O)N[C@@H](Cc1c[nH]c2ccccc12)C(=O)N[C@@H](CC(C)C)C(=O)N[C@@H](CC(C)C)C(=O)N[C@@H](CC(=O)O)C(=O)NCC(=O)NCC(=O)N1CCC[C@H]1C(=O)N[C@@H](CO)C(=O)N[C@@H](CO)C(=O)NCC(=O)N[C@@H](C)C(=O)N1CCC[C@H]1C(=O)N1CCC[C@H]1C(=O)N1CCC[C@H]1C(=O)N[C@@H](CO)C(N)=O)C(C)C)C(=O)O
B2: peptide of SEQ ID NO: 205 (peptide)
peptide: H[Aib]QGTFTSDK([γGlu-Palmitoyl])SKYLDERAAQDFVQWLLDGGPSSGAPPPSG-NH2
modifications: N-terminus assumed
SMILES: CCCCCCCCCCCCCCCC(=O)N[C@@H](CCC(=O)NCCCC[C@H](NC(=O)[C@H](CC(=O)O)NC(=O)[C@H](CO)NC(=O)[C@@H](NC(=O)[C@H](Cc1ccccc1)NC(=O)[C@@H](NC(=O)CNC(=O)[C@H](CCC(N)=O)NC(=O)C(C)(C)NC(=O)[C@@H](N)Cc1c[nH]cn1)[C@@H](C)O)[C@@H](C)O)C(=O)N[C@@H](CO)C(=O)N[C@@H](CCCCN)C(=O)N[C@@H](Cc1ccc(O)cc1)C(=O)N[C@@H](CC(C)C)C(=O)N[C@@H](CC(=O)O)C(=O)N[C@@H](CCC(=O)O)C(=O)N[C@@H](CCCNC(=N)N)C(=O)N[C@@H](C)C(=O)N[C@@H](C)C(=O)N[C@@H](CCC(N)=O)C(=O)N[C@@H](CC(=O)O)C(=O)N[C@@H](Cc1ccccc1)C(=O)N[C@H](C(=O)N[C@@H](CCC(N)=O)C(=O)N[C@@H](Cc1c[nH]c2ccccc12)C(=O)N[C@@H](CC(C)C)C(=O)N[C@@H](CC(C)C)C(=O)N[C@@H](CC(=O)O)C(=O)NCC(=O)NCC(=O)N1CCC[C@H]1C(=O)N[C@@H](CO)C(=O)N[C@@H](CO)C(=O)NCC(=O)N[C@@H](C)C(=O)N1CCC[C@H]1C(=O)N1CCC[C@H]1C(=O)N1CCC[C@H]1C(=O)N[C@@H](CO)C(=O)NCC(N)=O)C(C)C)C(=O)O
B3: dual acylated peptide of SEQ ID NO: 160 (peptide)
peptide: HXQGTFTSDKSKYLDERAAQDFVQWLLDGGPSSGAPPPS
modifications: aib at 2; Lys10 carrying two acylations in a branched formation, K*K(rEC16)2; amide
B4: dual acylated peptide of SEQ ID NO: 162 (peptide)
peptide: B3 peptide
modifications: aib at 2; Lys10 carrying two acylations in a linear formation, K*(C12-rEC16); amide
B5: peptide of SEQ ID NO: 207 (peptide)
peptide: H[Aib]QGTFTSDK([γGlu-γGlu-Palmitoyl])SKYLDERAAQDFVQWLLDGGPSSGAPPPSG-NH2
modifications: N-terminus assumed
SMILES: CCCCCCCCCCCCCCCC(=O)N[C@@H](CCC(=O)N[C@@H](CCC(=O)NCCCC[C@H](NC(=O)[C@H](CC(=O)O)NC(=O)[C@H](CO)NC(=O)[C@@H](NC(=O)[C@H](Cc1ccccc1)NC(=O)[C@@H](NC(=O)CNC(=O)[C@H](CCC(N)=O)NC(=O)C(C)(C)NC(=O)[C@@H](N)Cc1c[nH]cn1)[C@@H](C)O)[C@@H](C)O)C(=O)N[C@@H](CO)C(=O)N[C@@H](CCCCN)C(=O)N[C@@H](Cc1ccc(O)cc1)C(=O)N[C@@H](CC(C)C)C(=O)N[C@@H](CC(=O)O)C(=O)N[C@@H](CCC(=O)O)C(=O)N[C@@H](CCCNC(=N)N)C(=O)N[C@@H](C)C(=O)N[C@@H](C)C(=O)N[C@@H](CCC(N)=O)C(=O)N[C@@H](CC(=O)O)C(=O)N[C@@H](Cc1ccccc1)C(=O)N[C@H](C(=O)N[C@@H](CCC(N)=O)C(=O)N[C@@H](Cc1c[nH]c2ccccc12)C(=O)N[C@@H](CC(C)C)C(=O)N[C@@H](CC(C)C)C(=O)N[C@@H](CC(=O)O)C(=O)NCC(=O)NCC(=O)N1CCC[C@H]1C(=O)N[C@@H](CO)C(=O)N[C@@H](CO)C(=O)NCC(=O)N[C@@H](C)C(=O)N1CCC[C@H]1C(=O)N1CCC[C@H]1C(=O)N1CCC[C@H]1C(=O)N[C@@H](CO)C(=O)NCC(N)=O)C(C)C)C(=O)O)C(=O)O
B6: dual acylated peptide of SEQ ID NO: 163 (peptide)
peptide: H[Aib]QGTFTSDK([γGlu-Palmitoyl])SKYLDERAAQDFVQWLLDGGPSSGAPPPSK([γGlu-Palmitoyl])-NH2
modifications: N-terminus assumed
SMILES: CCCCCCCCCCCCCCCC(=O)N[C@@H](CCC(=O)NCCCC[C@H](NC(=O)[C@H](CO)NC(=O)[C@@H]1CCCN1C(=O)[C@@H]1CCCN1C(=O)[C@@H]1CCCN1C(=O)[C@H](C)NC(=O)CNC(=O)[C@H](CO)NC(=O)[C@H](CO)NC(=O)[C@@H]1CCCN1C(=O)CNC(=O)CNC(=O)[C@H](CC(=O)O)NC(=O)[C@H](CC(C)C)NC(=O)[C@H](CC(C)C)NC(=O)[C@H](Cc1c[nH]c2ccccc12)NC(=O)[C@H](CCC(N)=O)NC(=O)[C@@H](NC(=O)[C@H](Cc1ccccc1)NC(=O)[C@H](CC(=O)O)NC(=O)[C@H](CCC(N)=O)NC(=O)[C@H](C)NC(=O)[C@H](C)NC(=O)[C@H](CCCNC(=N)N)NC(=O)[C@H](CCC(=O)O)NC(=O)[C@H](CC(=O)O)NC(=O)[C@H](CC(C)C)NC(=O)[C@H](Cc1ccc(O)cc1)NC(=O)[C@H](CCCCN)NC(=O)[C@H](CO)NC(=O)[C@H](CCCCNC(=O)CC[C@H](NC(=O)CCCCCCCCCCCCCCC)C(=O)O)NC(=O)[C@H](CC(=O)O)NC(=O)[C@H](CO)NC(=O)[C@@H](NC(=O)[C@H](Cc1ccccc1)NC(=O)[C@@H](NC(=O)CNC(=O)[C@H](CCC(N)=O)NC(=O)C(C)(C)NC(=O)[C@@H](N)Cc1c[nH]cn1)[C@@H](C)O)[C@@H](C)O)C(C)C)C(N)=O)C(=O)O

Columns and labels:
Experiment in all cases: cell-based or functional assay
[1] = target: T2, glucagon receptor (UniProt P47871 26-477, limits assumed)
[2] = target: T1, GIP receptor
[3] = target: T3, GLP-1 receptor (UniProt P43220 24-463, limits assumed)
Target sequence in this assay (P43220 24-463 limits assumed): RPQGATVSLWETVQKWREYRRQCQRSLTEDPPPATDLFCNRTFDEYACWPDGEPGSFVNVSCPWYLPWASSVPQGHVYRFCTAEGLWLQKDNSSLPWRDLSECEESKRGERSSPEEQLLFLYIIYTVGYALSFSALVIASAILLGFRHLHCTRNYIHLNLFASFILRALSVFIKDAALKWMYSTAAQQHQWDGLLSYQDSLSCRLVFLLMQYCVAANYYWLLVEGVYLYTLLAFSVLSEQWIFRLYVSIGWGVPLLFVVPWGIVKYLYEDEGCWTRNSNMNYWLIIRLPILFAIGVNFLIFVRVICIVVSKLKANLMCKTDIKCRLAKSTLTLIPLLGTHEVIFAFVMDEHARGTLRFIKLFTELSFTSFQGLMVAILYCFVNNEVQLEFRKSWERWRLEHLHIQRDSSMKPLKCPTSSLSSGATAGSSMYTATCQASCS

[4] = target: T2, glucagon receptor; remark: listed apart in the source
[5] = target: T1, GIP receptor; remark: listed apart in the source
[6] = target: T3, GLP-1 receptor; remark: listed apart in the source
Target sequence in this assay (P43220 24-463 limits assumed): as above

[7] = target: T2, glucagon receptor; remark: listed apart in the source
[8] = target: T1, GIP receptor; remark: listed apart in the source
[9] = target: T3, GLP-1 receptor; remark: listed apart in the source
[10] = target: T2, glucagon receptor; remark: listed apart in the source
[11] = target: T1, GIP receptor; remark: listed apart in the source
[12] = target: T3, GLP-1 receptor; remark: listed apart in the source
Target sequence in this assay (P43220 24-463 limits assumed): as above

[13] = target: T2, glucagon receptor; remark: listed apart in the source
[14] = target: T1, GIP receptor; remark: listed apart in the source
[15] = target: T3, GLP-1 receptor; remark: listed apart in the source

T2 sequence (P47871 26-477 limits assumed): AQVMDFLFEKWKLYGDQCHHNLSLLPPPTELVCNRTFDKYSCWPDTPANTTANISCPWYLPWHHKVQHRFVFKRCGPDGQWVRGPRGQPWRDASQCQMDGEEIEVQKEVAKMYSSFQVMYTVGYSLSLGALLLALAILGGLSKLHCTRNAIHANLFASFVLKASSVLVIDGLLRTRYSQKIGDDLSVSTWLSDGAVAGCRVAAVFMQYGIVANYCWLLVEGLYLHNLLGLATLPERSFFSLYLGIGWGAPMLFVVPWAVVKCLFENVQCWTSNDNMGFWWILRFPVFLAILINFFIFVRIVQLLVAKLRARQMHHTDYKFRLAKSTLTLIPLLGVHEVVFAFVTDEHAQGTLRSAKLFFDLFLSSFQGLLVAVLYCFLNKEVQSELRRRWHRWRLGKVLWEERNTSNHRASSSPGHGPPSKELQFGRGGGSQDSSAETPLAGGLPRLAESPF

| Binder | EC50 (cAMP reporter) [7] | EC50 (cAMP reporter) [8] | EC50 (cAMP reporter) [9] | EC50 (cAMP, nmole) [13] | EC50 (cAMP, nmole) [14] | EC50 (cAMP, nmole) [15] | other results |
| --- | --- | --- | --- | --- | --- | --- | --- |
| B1 | – | – | – | – | – | – | EC50 (cAMP reporter) [1]: 4 pM; EC50 (cAMP reporter) [2]: 2 pM; EC50 (cAMP reporter) [3]: 6 pM; activity (cAMP reporter), column Glu [4]: 0.004; activity (cAMP reporter), column GIP [5]: 0.003; activity (cAMP reporter), column GLP [6]: 0.006 |
| H[Aib]QGTFTSDYSKYLDERAAQDFVQWLLDAGPSSGAPPPSK([γGlu-γGlu-Palmitoyl])G-NH2 [peptide of SEQ ID NO: 204] | 3 pM | 69 pM | 1 pM | – | – | – | – |
| B2 | 5 pM | 4 pM | 2 pM | – | – | – | – |
| YXEGTFTSDXSIYLDKQAAXEFVNWLLAGGPSSGAPPPS (aib at 2 and 20; 4-aminoPhe at 10, F(4amino-succinoylC16); NH2) [peptide of SEQ ID NO: 144] | – | – | – | – | – | – | EC50 (cAMP reporter) [10]: > 500 pM; EC50 (cAMP reporter) [11]: 13 pM; EC50 (cAMP reporter) [12]: 4 pM |
| H[Aib]QGTFTSDYSKYLDERAAQDFVQWLLDGGPSSGAPPPSK-NH2 (also: Lys40 branched dual acylation K*K(γE-C16)2) [dual acylated peptide of SEQ ID NO: 161] | – | – | – | 0.011 nmol | 0.01 nmol | 0.007 nmol | – |
| B3 | – | – | – | 0.024 nmol | 0.015 nmol | 0.007 nmol | – |
| B4 | – | – | – | 0.008 nmol | 0.033 nmol | 0.003 nmol | – |
| B5 | 5 pM | 15 pM | 2 pM | – | – | – | – |
| B6 | – | – | – | 0.018 nmol | 0.024 nmol | 0.011 nmol | – |
| H[Aib]QGTFTSDYSKYLDERAAQDFVQWLLAGGPSSGAPPPSK([γGlu-γGlu-Palmitoyl])G-NH2 [peptide of SEQ ID NO: 203] | 3 pM | 7 pM | 1 pM | – | – | – | – |
